Laboratory results as given in the DeepSol protein solubility set.

experiment: soluble on expression in E. coli; label from the status in PepcDB or PDB records

Row | Sequence | soluble on expression in E. coli
1 | MDTLQFQKNPETAAKMSAYMKHQFVFAGIPAPERQALSKQLLKESHTWPKEKLCQEIEAYYQKTEREYQYVAIDLALQNVQRFSLEEVVAFKAYVPQKAWWDSVDAWRKFFGSWVALHLTELPTIFALFYGAENFWNRRVALNLQLMLKEKTNQDLLKKAIIYDRTTEEFFIQKAIGWSLRQYSKTNPQWVEELMKELVLSPLAQREGSKYLAKASE | soluble
2 | MSLTADTKRPLTLRDVSEASGVSEMTVSRVLRNRGDVSDATRARVLAAAKELGYVPNKIAGALASNRVNLVAVIIPSLSNMVFPEVLTGINQVLEDTELQPVVGVTDYLPEKEEKVLYEMLSWRPSGVIIAGLEHSEAARAMLDAAGIPVVEIMDSDGKPVDAMVGISHRRAGREMAQAILKAGYRRIGFMGTKMPLDYRARKRFEGFTEVLGKNGVEIEDREFYSGGSALAKGREMTQAMLERSPDLDFLYYSNDMIAAGGLLYLLEQGIDIPGQIGLAGFNNVELLQGLPRKLATMDACRLEIGRKAAEIIAKRLEDPEAEIETRITLEPKISYGDTLKREGHHHHHH | soluble
3 | MGSDKIHHHHHHMILDERVNSNFDQLNDNDIQIAHYVNTHIDVCKNMKIQDLASQTHASNATIHRFTRKLGFDGYSDFKSFLKFEDSKNHQLPSDSMEQFKQEIENTFNYLERIDYRLLTHKMHHATTIYLYGTGRAQMNVAEEAQRILLTMHKNIILLHDVHELKMVLNKTIPEDLFFIISLSGETHQLKEVTQLLQLRQKYFISVTTMKDNTLAQQADYNVYVSSNTFYLNDGTDYSSFISYHIFFETLLRKYNEYKENHELT | not soluble
4 | MCTARTAEEIFVETIAVKTRILNDRVLLEAARAIGDRLIAGYRAGARVFMCGNGGSAADAQHFAAELTGHLIFDRPPLGAEALHANSSHLTAVANDYDYDTVFARALEGSARPGDTLFAISTSGNSMSVLRAAKTARELGVTVVAMTGESGGQLAEFADFLINVPSRDTGRIQESHIVFIHAISEHVEHALFAPRQ | soluble
5 | MAHHHHHHMPLVKAETDASFVAEVAESVGGACARMNDHISVMIEEYLRRRTQQVRDDVKQELDAVRVHLERKIADAEAAKAVEEERYHKKKVQVLQAAVELQKMHANLHLQRLFHTWRRCADVRQERRRLAEEAHIHIGRLSLFHAYMQWRLFAAALRQKRLEAKEAHKRDCREQELLGQIEGYQRQLEGERAKDASLNEKLKEAFVRGMCALNREAVHVLHGSEENQDADVEAIAEILSRESHSRHRSVTPGHMDSSTLSNVHGHGVCPVHHIDAKGSFYHPCFSPGYCEYDRHSGSRAPVSSAVPPSASGPFVVSADPKSARSIDSSPPVPFRHLSKSSTTRWRM | not soluble
6 | MGSDKIHHHHHHMPAFPLNAWYAAAWDADIKHALFPRTICGKHVVMYRKADGTVAALEDACWHRLVPLSKGRLEGDTVVCGYHGLKFNPQGRCTYMPSQETINPSACVRSYPVVERHRFVWLWMGDPVLADPALVPDMHWNDDPAWAGDGKTIYAKCDWRLVVDNLMDLTHETYVHGSSIGNEAVAEAPFDVTHGDRTVTVTRWMKGIEPPPFWAAQLGKPGLVDRWQIIRFEAPGTVTIDVGVAPAGTRAPEGDRSQGVNGFVLNTMTPETDTTCHYFWAFVRNYRLSEQRLTTEIREGVSGIFREDEIILEAQQRAMLENPDRVFYNLNIDAGAMWSRKLIDRMVAQESAPKLQAAE | not soluble
7 | MGSDKIHHHHHHMKLTIAGDSHGKYMVAILEGLPSGIRVDEELIRRDLFRRRNCYGRGKRMKMEEDAFEIVSGLWKGITTGAPVTILIPNRAGNPVKDVRSVPRPGHIDYAAWVKYKLPDLNIYVERSSARWTVALTAAGSLLKSLLKEFGIEVLGFVTRLGNVEARDIPGDFEELKRRRDESVVFCPDPEATKEMVAEIDRAKEEGNTLGGKVKVIARGVPAGIGSYSDLFKKLDSKIGSLFFAIPAVKGVVIGSEEMWYGFDYLDEFELEDGKIKRKTNNLGGIEGGITNGEDVWVNVSVKPIPTTGKPLKSVDLRTMEPAKTPYVRSDVTAVPPASVVCEAALAVVISDALLEHLGDGNIDDLKRRFENENLPRWNDGFWKEHYR | not soluble
8 | MAHHHHHHMCPPKNENERGTEGQPAKNTESADTLKRKLSELYAEEGCQYGENGQPEDTSHLVSSGSAGKKRETATEKRNPEEVREKENAHEKKEDNEVDQNGQTSTSKTNTKKHRSSTDEPPNRRKKKKRKKKFNDNGEVTKPSKQMIRINYLLQASFLMNELNPNISREYIKTMRKLSNKFLIKHDKKFKKLFCKKCNSVLIPSATCKVSVNPLNLRKKKKNKNEEVSSNLNGKLRDEFLVSYRCNYCQHDTKFVYENGLTAPRANGTEAV | soluble
9 | SLRSFEAPNGVAFASIGDTGAANSNQAKCGISLAALSVALDIKFVNLLGDNLYPHGVTSAVDPLWQSAFEVPFGAPSLQKVAFFPVLGNHDYHLDPYAQIDRCIRLGNEHLNFTEKEKTDGSRPQLSKTYQMQAMLPWMKIHHEKFRYSFDQTTKMHGLDGPRWRLPNFWYFTRHVFRNVPRHVKNPFVTGASISDISLVSTEEDKTDVTVVTIYIDSMVLLLEEGSKSSSIRYRFPRDELYYRHLEFLEDTLKAATREADWIFIAGHHPVVNYSVRNAKPSDFAVRLTELMRKYKVDTFLSGHEHALSFFQEPDANTTHIISGTGSKLSARDPIPSKDCLFSVREHGVAVHVLGKEELHHGFVSADGKVLFTASQRRQDRT | soluble
10 | MAAPVAPSEPQASRAPQPPVCLLVLGMAGSGKTTFVQRLTGHLHNKGCPPYVINLDPAVHEVPFPANIDIRDTVKYKEVMKQYGLGPNGGIVTSLNLFATRFDQVMKFIEKAQNTFRYVLIDTPGQIEVFTWSASGTIITEALASSFPTVVIYVMDTSRSTNPVTFMSNMLYACSILYKTKLPFIVVMNKTDIIDHSFAVEWMQDFEAFQDALNQETTYVSNLTRSMSLVLDEFYSSLRVVGVSAVVGTGFDELCTQVTSAAEEYEREYRPEYERLKKSLANAQSNQQKEQLERLRKDMGSVALDPEAGKGNASPVLDPSDLILTRGTLDEEDEEADSDTDDIDHRVTEESREEPAFQNFMEESMAHWKRNK | not soluble
11 | GPGSMELTEEERGLLILRLHQVLRPFLLRRTKADVDSTLRMTFHHMWCPLSAMQQRLLCMLREQRRIPTVLGMAGGYSGKSSSSSEADNEEEEEAAGAADAAAHTSTFPAAEIGADESTGCTPYIAVAALAADALHGKASPDLDPLQARNETAMPRDRLAELVWRHLPALASTESSDILRCAVQQDRALGLTSAGVSESSARLVCNHAFLLPFFSQVLHRHGLDEVTQEGCNDADAAAVATSESSVVGAEAAERCGAAGLTLACSGKFLVLHLLLSRLYVAQRKVVLFTHWLNCVDLLVDYLYSRGWADHAEVLTGGSSEAERLTSVRRFREDPGCLFFLLSIKAGGCGINLQAAHMVVLVDRDYTVTNEDQALARVYRIGQRYTVRAVYLATTDSSEQHVAQRATAKNKPRQAIINDGVYQVTTASEGERVGETGEAVTAAKFADPPSHAYNELDTSELWRSISGATTPPSPTTAMQEARRPECDGTASGAARPAPFSLPPPEAFWVALSCLVESMDELVLTEEDRAAATVRSAEEERRSMGCTPANSAAARLLATRPPRSTAELHLRLQGGRDEMFSGPQRERGVAPSLSGTAASDAYLGVWKQSAEAPTTGDRTRSHTPSEPQAAALAAAPQPTPRSAPVTDPLQNSALFWLEYSHLLRIAGRGPYLLSDSLRVAVTNDTRKNDPEERVRRRQRRDRRVAKRLRLASVDVPDDFREACWAKEGIDDDAEVAERYLRFLDANAGKRRQRRRKDAG | not soluble
12 | MTDRLIIQGGKKLSGTLQVDGAKNSAVALIPAAILAESEVVLEGLPDISDVYTLYDILEELGGSVRYDNKTAIIDPTDMLSMPLPSGNVKKLRASYYLMGAMLGRFKKAVIGLPGGCYLGPRPIDQHIKGFEALGAKVTNEQGAIYLRADELKGARIYLDVVSVGATINIMLAAVRAKGKTVIENAAKEPEIIDVATLLTNMGAIIKGAGTDTIRITGVDHLHGCHHTIIPDRIEAGTFMVLAAASGKGIRIENVIPTHLEGIIAKLTEMGVPMDIEEDSIFIGEVENIKKVDIKTYAYPGFPTDLQQPLTALLTRAEGSSVITDTIYPSRFKHIAELERMGGKFKLEGRSAVISGPAKLQGSKVTATDLRAGAALVIAGLLAEGRTEIHGVEHIERGYSKIIEKLSAIGADITRSSTAETNI | not soluble
13 | GTREQALGPALSFSTEGEFLKVRILDPVADSRRYNEEFKAQGLDIELVLIPASPSQVGQADGQLYSGSNTRQRIRFESVPAGCVEAATYPCVPEFTIPKDYRGTARFGINRAAAPGEQYAATGALNGRDEPLEGIQWLNRPVGEISAILRQRGFSITYRWPTGRQNPNATPPPTWYVIEPSFARQNNLVELEVSPRPMK | not soluble
14 | MLNEREKILLKTLVERYIHEGQPVGSRSLAKFSGLDLSPATIRNVMTDLEEMGYVSSPHTSAGRMPTTLGYRFFVDTLLVVKSLDNEQITLLENQLHPNNPTHLMNVTSRLLSELTRFVGVVVTPKRMGGAVFRHIEFVALTEKRILLILVTPEGDVQNRIILTETAYSQSDLIEAGNFLNQHYAGCTLEEIRSGLQRELTQLRRDMTGLMNAAIEIGNDALQESSEAVVIAGEHRLFDVRDLSDNLSSLKSLFEMFERKSKLLQLMELSRQAHGVKIFIGGESDETMLEEVSVVTAPYEMEGKIVGTVGVIGPRRMAYERIIPIVDITAKLLSSNLS | not soluble
15 | MMIMREILISECIELLRSHKFIVSKPLGRSCFDMVASKEDIRLILKILKNIDSLSRDQSKELKKISKILHGTPLIIGIRTRNAPMEHGVVYDRYNIKAVTFETFRDYLEGSPPMVYANRGGFFVKIDGKVLKEVREAMGISVGKLAEVAGVSRKAIYKYETQMANPSVDVALKIEEFLDVPLVKGIDLFEPVDDEDVENKLENLEDFKKEAINFLNELGFKSFVVEKAPFDAVAEKDMDNNLNILLTNIEEKDNEEVKRKALFVRELSRLLDGYSLLILEEKEKEYKNLPVVSIEELKKMDDALELIEHIKSMLRDIR | soluble
16 | SNAMTTPIRVVVWNEFRHEKKDEQVRAIYPEGMHTVIASYLAEAGFDAATAVLDEPEHGLTDEVLDRCDVLVWWGHIAHDEVKDEVVERVHRRVLEGMGLIVLHSGHFSKIFKKLMGTTCNLKWREADEKERLWVVAPGHPIVEGIGPYIELEQEEMYGEFFDIPEPDETIFISWFEGGEVFRSGCTFTRGKGKIFYFRPGHETYPTYHHPDVLKVIANAVRWAAPVNRGEIVFGNVKPLEPIKAKQGGVTQ | soluble
17 | MGHHHHHHSHMKMGYEEVSQKFTSIRRVRGDNYCALRATLFQAMSQAVGLPPWLQDPELMLLPEKLISKYNWIKQWKLGLKFDGKNEDLVDKIKESLTLLRKKWAGLAEMRTAEARQIACDELFTNEAEEYSLYEAVKFLMLNRAIELYNDKEKGKEVPFFSVLLFARDTSNDPGQLLRNHLNQVGHTGGLEQVEMFLLAYAVRHTIQVYRLSKYNTEEFITVYPTDPPKDWPVVTLIAEDDRHYNIPVRVCEETSL | soluble
18 | RQLALEAKGETPSAVTRLSVVAKSEPQDEQSRSQSARRIILSRLKAGEVDLLEEELGHLTTLTDVVKGADSLSAILPGDIAEDDITAVLCFVIEADQITFETVEVSPKISTPPVLKLAAEQAPTGRVEREKTTR | soluble
19 | MLDVEVEEKAGPKGKHNKDRTVYSYGTEKTSVVLDGRKVKIERPRLCVYKIRKLTLKDSNSFSRRTR | not soluble
